Results on 1 molecule are retold here after US20190218304A1 (INNATE PHARMA, published 2019).

For one test, the target named is T1, CD39 mutant 15 (human, UniProt P49961 1-510).
T1 construct: Expressed on transfected Hek-293T cells; also called M15
T1 chain: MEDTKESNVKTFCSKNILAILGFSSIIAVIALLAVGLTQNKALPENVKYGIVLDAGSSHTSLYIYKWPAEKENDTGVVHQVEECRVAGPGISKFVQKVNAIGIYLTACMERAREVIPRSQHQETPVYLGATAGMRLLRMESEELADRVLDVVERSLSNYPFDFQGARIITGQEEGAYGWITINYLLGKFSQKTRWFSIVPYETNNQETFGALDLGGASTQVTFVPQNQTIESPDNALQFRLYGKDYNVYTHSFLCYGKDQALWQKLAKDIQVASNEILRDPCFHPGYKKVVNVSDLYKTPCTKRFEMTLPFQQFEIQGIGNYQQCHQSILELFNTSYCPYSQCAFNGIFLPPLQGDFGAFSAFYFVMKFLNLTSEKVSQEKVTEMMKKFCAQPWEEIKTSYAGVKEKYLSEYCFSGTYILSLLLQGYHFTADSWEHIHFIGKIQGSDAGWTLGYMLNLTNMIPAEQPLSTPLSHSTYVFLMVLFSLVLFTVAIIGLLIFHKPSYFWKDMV
Kind of test: flow cytometry on Hek-293T cells transfected with CD39 mutant 15 [panel M15].

The target of test [1] is T2, human CD39 expressed on cells (human, UniProt P49961 1-510).
T2 construct: On CHO transfectants, HEK-293T transfectants (wild type), Ramos lymphoma cells or monocyte-derived dendritic cells, as named under assay; also called huCD39; CHO-huCD39
T2 sequence: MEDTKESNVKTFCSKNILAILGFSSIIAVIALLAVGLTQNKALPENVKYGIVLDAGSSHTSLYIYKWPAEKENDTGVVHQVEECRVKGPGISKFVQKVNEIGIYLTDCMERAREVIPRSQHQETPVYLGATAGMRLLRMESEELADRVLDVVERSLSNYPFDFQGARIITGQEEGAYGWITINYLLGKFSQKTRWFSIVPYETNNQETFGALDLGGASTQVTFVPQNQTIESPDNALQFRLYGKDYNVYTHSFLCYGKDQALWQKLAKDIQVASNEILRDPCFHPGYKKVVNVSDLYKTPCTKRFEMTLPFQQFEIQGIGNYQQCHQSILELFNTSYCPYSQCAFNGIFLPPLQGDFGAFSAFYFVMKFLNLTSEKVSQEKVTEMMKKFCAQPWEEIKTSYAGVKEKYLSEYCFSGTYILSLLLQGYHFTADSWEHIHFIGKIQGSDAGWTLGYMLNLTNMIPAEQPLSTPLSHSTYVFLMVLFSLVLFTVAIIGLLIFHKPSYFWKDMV
The test can be described thus: flow cytometry titration on Ramos lymphoma cells, second experiment; Ramos cells, second set of experiments. The method, then: (§1) Cells were incubated with various concentration of unlabeled anti-CD39 antibody from 30 μg/ml to 5×10⁻⁴ μg/ml, for 30 minutes at 4° C. After washes, cells were incubated with Goat anti-mouse H+L labeled secondary antibody for 30 min at 4° C.
For orientation: Flow cytometry measures light scatter and fluorescence of single cells or particles in a stream.

The target in test [2] is T2, human CD39 expressed on cells. Kind of test: flow cytometry titration on CHO cells expressing human CD39, labeled secondary antibody [panel CHO-huCD39]. How it is done:
as §1

Test [3] shares this target. Kind of test: flow cytometry titration on Ramos lymphoma cells, first experiment; Ramos cells, first set of experiments. The method, then: as §1
The next test deals with T3, Human CD39-L3 (human, UniProt O75355 44-485, limits assumed).
T3 construct: Recombinant protein coated in ELISA; also called NTPDase3; ENTPD3
T3 sequence: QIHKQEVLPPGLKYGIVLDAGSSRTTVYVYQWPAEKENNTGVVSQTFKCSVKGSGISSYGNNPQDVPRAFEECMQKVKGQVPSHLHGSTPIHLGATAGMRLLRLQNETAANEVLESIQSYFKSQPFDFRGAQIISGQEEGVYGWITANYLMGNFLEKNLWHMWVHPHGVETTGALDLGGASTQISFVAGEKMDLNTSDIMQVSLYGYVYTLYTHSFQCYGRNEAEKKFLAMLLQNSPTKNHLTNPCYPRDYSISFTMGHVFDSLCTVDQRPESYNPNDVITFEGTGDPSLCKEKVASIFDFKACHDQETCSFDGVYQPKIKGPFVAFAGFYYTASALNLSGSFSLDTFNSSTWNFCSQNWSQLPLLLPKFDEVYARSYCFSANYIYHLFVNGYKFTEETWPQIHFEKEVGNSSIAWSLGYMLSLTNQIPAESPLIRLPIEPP
The test can be described thus: ELISA on coated recombinant human CD39-L3 [panel huCD39 L3]. The method, then: Wells were washed in TBS Tween 20, and further saturated 2H at RT in TBS Blocking buffer. Dose range concentration of primary antibody was incubated in TBS blocking buffer for 2 h at RT. Wells were washed in TBS Tween 20. […] Optical density was measured on Enspire™ at OD=450.
For orientation: ELISA stands for enzyme-linked immunosorbent assay.

In test [4] the target is T2, human CD39 expressed on cells. The test can be described thus: flow cytometry on Hek-293T cells transfected with wild-type CD39 (unstained cells, US: 10,3) [panel WT].
For test [5] the target is unchanged. Kind of test: cell-based or functional assay.
The target in test [6] is T4, recombinant human CD39-M2 extracellular domain protein (human, UniProt P49961 38-478).
T4 sequence: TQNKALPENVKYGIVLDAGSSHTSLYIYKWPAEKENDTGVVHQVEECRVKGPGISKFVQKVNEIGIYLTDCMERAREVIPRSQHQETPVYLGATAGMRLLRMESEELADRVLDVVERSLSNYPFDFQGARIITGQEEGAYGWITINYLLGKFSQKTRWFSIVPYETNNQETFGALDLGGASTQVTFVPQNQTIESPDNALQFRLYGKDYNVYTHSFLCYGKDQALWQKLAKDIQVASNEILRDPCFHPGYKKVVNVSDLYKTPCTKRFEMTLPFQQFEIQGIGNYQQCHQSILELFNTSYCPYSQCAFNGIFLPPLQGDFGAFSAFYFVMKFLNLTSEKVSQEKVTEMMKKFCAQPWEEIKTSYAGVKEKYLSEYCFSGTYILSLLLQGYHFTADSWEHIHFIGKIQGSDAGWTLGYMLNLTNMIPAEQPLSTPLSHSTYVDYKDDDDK
The test can be described thus: cell-based or functional assay.

B1: antibody I-394 (antibody, human IgG1, kappa, V domains shown)
VH: EVQLQQSGPELVKPGASVKMSCKASGYTFTDYNMHWVKQSHGRTLEWIGYIVPLNGGSTFNQKFKGRATLTVNTSSRTAYMELRSLTSEDSAAYYCARGGTRFAYWGQGTLVTVSA
VL: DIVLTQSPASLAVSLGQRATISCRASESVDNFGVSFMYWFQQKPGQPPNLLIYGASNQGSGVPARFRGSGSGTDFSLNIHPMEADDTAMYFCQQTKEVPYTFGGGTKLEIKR
notes: The hybridoma-derived mouse form was used in early screening
On to B1, for which the binding result with CD39 mutant 15 is “binds”; with Human CD39-L3, “no binding”. Besides, the figures for the EC50 in test [1] and in test [3] were 0.19 µg/mL and 0.16 µg/mL, respectively. Also, the “EC50 (read off the curve)” value in test [2] is approximately 0.2 µg/mL. Further, the “Median : Comp-Alexa Fluor 647-A” value in test [4] came out at 3720. Moreover, the “IC50 (inhibition of 50% of the enzymatic activity of CD39 expressed by 50,000 Ramos cells)” value in test [5] came to 0.05 µg/mL. For the same molecule, in test [6], the “IC50, inhibition of the ATPase activity of soluble CD39 protein” value was found to be 0.003 µg/mL.

As a reminder, the EC50 is the concentration at which the effect is half-maximal. Low values mean an effect from little substance, high ones a need for much substance. For orientation: EC50 (read off the curve) means the midpoint of the concentration-response curve. A high value points to a need for much substance.
